Tests used:
NLRP3 inflammasome [1] = molecular target: T1, NLRP3 inflammasome (Homo sapiens, UniProt Q96P20+Q9ULZ3); experiment: NLRP3-mediated IL-1β secretion ELISA (LPS priming, nigericin activation); format: cell-based; conditions: THP1-derived macrophages, LPS-primed, peptide 1 to 20 μM (FIG. 1E)
T1 construct: THP1-derived macrophages were primed with LPS (10 ng/ml) for 3 hours and then treated with peptides; endogenous in cells; host or cells: THP1-derived macrophages
Procedure: (§1) THP1-derived macrophages were seeded at a density of […] in a 96-well plate (BD Biosciences) and grown overnight. The next day, the cells were primed with LPS (Sigma-Aldrich) at a concentration of 10 ng/ml or human tumor necrosis factor alpha (TNF-α; R&D Systems, Minneapolis, Minn., USA) at a concentration of 100 ng/ml for 3 hours, and then treated with peptides at different concentrations for 1 hour. In order to activate the NLRP3 pathway, LPS-primed cells were stimulated for 2 hours with […] nigericin (Invivogen, Carlsbad, CA, USA), which is a known NLRP3 activator. After 6 hours of treatment, the secretion levels of IL-1β and IL-18 were evaluated using a Human IL-1β Uncoated ELISA Kit (Invitrogen) and a Human IL-18 ELISA kit (RayBiotech, Norcross, GA, USA), respectively. The secretion levels of IL-8 and TNF-α were analyzed using a Human IL-8 ELISA kit and a TNF-α ELISA Kit (Invitrogen), respectively. In all experiments, absorbance was analyzed at an appropriate wavelength using a microplate spectrophotometry system (Molecular Devices Inc., Silicon Valley, CA, USA).
(§2) Overall, activation of the NLRP3 inflammasome results not only in cleavage of pro-IL-1β and pro-IL-18, but also in release of active IL-1β and IL-18 and other soluble inflammatory mediators. Thus, NIP was mainly evaluated for regulatory effect on the NLPR3-mediated pathway through the assessment of IL-1β secretion. […]

NLRP3 inflammasome [2] = molecular target: T1, NLRP3 inflammasome; experiment: NLRP3-mediated IL-18 secretion ELISA (LPS priming, nigericin activation); format: cell-based; conditions: THP1-derived macrophages, LPS-primed, nigericin (FIG. 1E, 4B)
Procedure: as §1, §2

T1 sequence (Q96P20 whole entry): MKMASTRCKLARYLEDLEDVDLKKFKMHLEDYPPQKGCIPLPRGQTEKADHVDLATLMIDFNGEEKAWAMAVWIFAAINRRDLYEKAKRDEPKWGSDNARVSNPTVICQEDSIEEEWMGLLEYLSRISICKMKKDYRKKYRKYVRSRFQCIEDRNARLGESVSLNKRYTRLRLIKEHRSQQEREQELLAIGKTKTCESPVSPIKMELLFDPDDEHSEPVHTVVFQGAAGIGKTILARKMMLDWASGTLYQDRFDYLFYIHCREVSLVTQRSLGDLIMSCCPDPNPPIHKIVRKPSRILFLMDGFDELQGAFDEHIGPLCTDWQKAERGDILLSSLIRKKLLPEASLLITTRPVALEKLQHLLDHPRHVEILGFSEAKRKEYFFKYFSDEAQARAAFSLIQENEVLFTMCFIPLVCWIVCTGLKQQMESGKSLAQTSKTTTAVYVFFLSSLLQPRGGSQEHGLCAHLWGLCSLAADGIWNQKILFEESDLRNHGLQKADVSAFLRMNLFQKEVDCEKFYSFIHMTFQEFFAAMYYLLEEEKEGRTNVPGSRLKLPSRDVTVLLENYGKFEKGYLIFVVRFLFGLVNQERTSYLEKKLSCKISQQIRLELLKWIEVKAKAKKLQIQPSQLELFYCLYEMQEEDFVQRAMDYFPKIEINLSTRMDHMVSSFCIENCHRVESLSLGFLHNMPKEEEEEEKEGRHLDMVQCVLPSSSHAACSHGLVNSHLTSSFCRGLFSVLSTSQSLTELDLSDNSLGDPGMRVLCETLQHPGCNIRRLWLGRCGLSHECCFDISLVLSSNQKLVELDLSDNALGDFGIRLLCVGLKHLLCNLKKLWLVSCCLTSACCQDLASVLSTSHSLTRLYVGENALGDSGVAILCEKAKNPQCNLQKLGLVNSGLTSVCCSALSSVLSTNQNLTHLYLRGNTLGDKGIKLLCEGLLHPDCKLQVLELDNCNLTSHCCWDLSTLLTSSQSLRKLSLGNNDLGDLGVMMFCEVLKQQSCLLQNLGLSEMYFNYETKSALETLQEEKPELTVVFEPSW
T1 sequence (Q9ULZ3 whole entry): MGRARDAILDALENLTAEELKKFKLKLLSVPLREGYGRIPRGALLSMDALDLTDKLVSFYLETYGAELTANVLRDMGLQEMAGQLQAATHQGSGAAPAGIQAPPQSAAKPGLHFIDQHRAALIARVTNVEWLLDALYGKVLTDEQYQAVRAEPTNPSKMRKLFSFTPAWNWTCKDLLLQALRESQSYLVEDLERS

Inhibition of NLPR3-mediated IL-1β secretion (NLRP3 inflammasome [1]): did not have the ability to inhibit | Inhibition of IL-18 secretion (NLRP3 inflammasome [2]): did not have the ability to inhibit
Sequence: DALDLTDKLVS (NLRP3/ASC-inhibitory peptide 7 (NIP7)) [evaluated fused at the N-terminus with penetratin]

— patent publication US20240309045A1, “NLRP3 INFLAMMASOME INHIBITORY PEPTIDE FOR TREATMENT OF INFLAMMATORY DISEASES” (AJOU UNIVERSITY INDUSTRY-ACADEMIC COOPERATION FOUNDATION, priority 2021, published 2024)
